From US20240270846A1 (published 2024)

B1: GLS3000 P95S one-amino acid altered one-arm antibody (CE115HA000-pE22Hh / Kn010G3 / GLS3000 P95S-kappa) (antibody, human IgG1, kappa, L234A L235A, N297A, name in Kabat numbering)
heavy: QVQLVESGGGVVQPGRSLRLSCAASGFTFSNAWMHWVRQAPGKGLEWVAQIKAKSNNYATYYAESVKGRFTISRDDSKNSLYLQMNSLKTEDTAVYYCRYVHYGAYYGVDAWGQGTTVTVSSASTKGPSVFPLAPSSKSTSGGTAALGCLVKDYFPEPVTVSWNSGALTSGVHTFPAVLQSSGLYSLSSVVTVPSSSLGTQTYICNVNHKPSNTKVDKKVEPKSCDKTHTCPPCPAPEAAGGPSVFLFPPKPKDTLMISRTPEVTCVVVDVSHEDPEVKFNWYVDGVEVHNAKTKPREEQYASTYRVVSVLTVLHQDWLNGKEYKCKVSNKALPAPIEKTISKAKGQPREPQVYTLPPSRCELTKNQVSLSCAVKGFYPSDIAVEWESNGQPENNYKTTPPVLDSDGSFFLVSKLTVDKSRWQQGNVFSCSVMHEALHNHYTQKSLSLSPDYKDDDDK
chain: EPKSSDKTHTCPPCPAPELLGGPSVFLFPPKPKDTLMISRTPEVTCVVVDVSHEDPEVKFNWYVDGVEVHNAKTKPREEQYNSTYRVVSVLTVLHQDWLNGKEYKCKVSNKALPAPIEKTISKAKGQPREPQVCTLPPSRDELTKNQVSLWCLVKGFYPSDIAVEWESNGQPENNYKTTPPVLDSDGSFFLYSKLTVDKSRWQQGNVFSCSVMHEALHNRYTQKSLSLSP
light: DIVMTQSPLSLPVTPGEPASISCRSSQSLVHSNRNTYLHWYQQKPGQAPRLLIYKVSNRFSGVPDRFSGSGSGTDFTLKISRVEAEDVGVYYCGQGTQVSYTFGQGTKLEIKRTVAAPSVFIFPPSDEQLKSGTASVVCLLNNFYPREAKVQWKVDNALQSGNSQESVTEQDSKDSTYSLSSTLTLSKADYEKHKVYACEVTHQGLSSPVTKSFNRGEC
notes: One-arm antibody; substitution position in Kabat numbering; also called L chain altered form, Kabat 95 P to S
B2: GLS3000 Q90S one-amino acid altered one-arm antibody (CE115HA000-pE22Hh / Kn010G3 / GLS3000 Q90S-kappa) (antibody, human IgG1, kappa, L234A L235A, N297A, name in Kabat numbering)
heavy: QVQLVESGGGVVQPGRSLRLSCAASGFTFSNAWMHWVRQAPGKGLEWVAQIKAKSNNYATYYAESVKGRFTISRDDSKNSLYLQMNSLKTEDTAVYYCRYVHYGAYYGVDAWGQGTTVTVSSASTKGPSVFPLAPSSKSTSGGTAALGCLVKDYFPEPVTVSWNSGALTSGVHTFPAVLQSSGLYSLSSVVTVPSSSLGTQTYICNVNHKPSNTKVDKKVEPKSCDKTHTCPPCPAPEAAGGPSVFLFPPKPKDTLMISRTPEVTCVVVDVSHEDPEVKFNWYVDGVEVHNAKTKPREEQYASTYRVVSVLTVLHQDWLNGKEYKCKVSNKALPAPIEKTISKAKGQPREPQVYTLPPSRCELTKNQVSLSCAVKGFYPSDIAVEWESNGQPENNYKTTPPVLDSDGSFFLVSKLTVDKSRWQQGNVFSCSVMHEALHNHYTQKSLSLSPDYKDDDDK
chain: EPKSSDKTHTCPPCPAPELLGGPSVFLFPPKPKDTLMISRTPEVTCVVVDVSHEDPEVKFNWYVDGVEVHNAKTKPREEQYNSTYRVVSVLTVLHQDWLNGKEYKCKVSNKALPAPIEKTISKAKGQPREPQVCTLPPSRDELTKNQVSLWCLVKGFYPSDIAVEWESNGQPENNYKTTPPVLDSDGSFFLYSKLTVDKSRWQQGNVFSCSVMHEALHNRYTQKSLSLSP
light: DIVMTQSPLSLPVTPGEPASISCRSSQSLVHSNRNTYLHWYQQKPGQAPRLLIYKVSNRFSGVPDRFSGSGSGTDFTLKISRVEAEDVGVYYCGSGTQVPYTFGQGTKLEIKRTVAAPSVFIFPPSDEQLKSGTASVVCLLNNFYPREAKVQWKVDNALQSGNSQESVTEQDSKDSTYSLSSTLTLSKADYEKHKVYACEVTHQGLSSPVTKSFNRGEC
notes: One-arm antibody; substitution position in Kabat numbering; also called L chain altered form, Kabat 90 Q to S
B3: GLS3000 Q90P one-amino acid altered one-arm antibody (CE115HA000-pE22Hh / Kn010G3 / GLS3000 Q90P-kappa) (antibody, human IgG1, kappa, L234A L235A, N297A, name in Kabat numbering)
heavy: QVQLVESGGGVVQPGRSLRLSCAASGFTFSNAWMHWVRQAPGKGLEWVAQIKAKSNNYATYYAESVKGRFTISRDDSKNSLYLQMNSLKTEDTAVYYCRYVHYGAYYGVDAWGQGTTVTVSSASTKGPSVFPLAPSSKSTSGGTAALGCLVKDYFPEPVTVSWNSGALTSGVHTFPAVLQSSGLYSLSSVVTVPSSSLGTQTYICNVNHKPSNTKVDKKVEPKSCDKTHTCPPCPAPEAAGGPSVFLFPPKPKDTLMISRTPEVTCVVVDVSHEDPEVKFNWYVDGVEVHNAKTKPREEQYASTYRVVSVLTVLHQDWLNGKEYKCKVSNKALPAPIEKTISKAKGQPREPQVYTLPPSRCELTKNQVSLSCAVKGFYPSDIAVEWESNGQPENNYKTTPPVLDSDGSFFLVSKLTVDKSRWQQGNVFSCSVMHEALHNHYTQKSLSLSPDYKDDDDK
chain: EPKSSDKTHTCPPCPAPELLGGPSVFLFPPKPKDTLMISRTPEVTCVVVDVSHEDPEVKFNWYVDGVEVHNAKTKPREEQYNSTYRVVSVLTVLHQDWLNGKEYKCKVSNKALPAPIEKTISKAKGQPREPQVCTLPPSRDELTKNQVSLWCLVKGFYPSDIAVEWESNGQPENNYKTTPPVLDSDGSFFLYSKLTVDKSRWQQGNVFSCSVMHEALHNRYTQKSLSLSP
light: DIVMTQSPLSLPVTPGEPASISCRSSQSLVHSNRNTYLHWYQQKPGQAPRLLIYKVSNRFSGVPDRFSGSGSGTDFTLKISRVEAEDVGVYYCGPGTQVPYTFGQGTKLEIKRTVAAPSVFIFPPSDEQLKSGTASVVCLLNNFYPREAKVQWKVDNALQSGNSQESVTEQDSKDSTYSLSSTLTLSKADYEKHKVYACEVTHQGLSSPVTKSFNRGEC
notes: One-arm antibody; substitution position in Kabat numbering; also called L chain altered form, Kabat 90 Q to P
B4: GLS3000 Q90Y one-amino acid altered one-arm antibody (CE115HA000-pE22Hh / Kn010G3 / GLS3000 Q90Y-kappa) (antibody, human IgG1, kappa, L234A L235A, N297A, name in Kabat numbering)
heavy: QVQLVESGGGVVQPGRSLRLSCAASGFTFSNAWMHWVRQAPGKGLEWVAQIKAKSNNYATYYAESVKGRFTISRDDSKNSLYLQMNSLKTEDTAVYYCRYVHYGAYYGVDAWGQGTTVTVSSASTKGPSVFPLAPSSKSTSGGTAALGCLVKDYFPEPVTVSWNSGALTSGVHTFPAVLQSSGLYSLSSVVTVPSSSLGTQTYICNVNHKPSNTKVDKKVEPKSCDKTHTCPPCPAPEAAGGPSVFLFPPKPKDTLMISRTPEVTCVVVDVSHEDPEVKFNWYVDGVEVHNAKTKPREEQYASTYRVVSVLTVLHQDWLNGKEYKCKVSNKALPAPIEKTISKAKGQPREPQVYTLPPSRCELTKNQVSLSCAVKGFYPSDIAVEWESNGQPENNYKTTPPVLDSDGSFFLVSKLTVDKSRWQQGNVFSCSVMHEALHNHYTQKSLSLSPDYKDDDDK
chain: EPKSSDKTHTCPPCPAPELLGGPSVFLFPPKPKDTLMISRTPEVTCVVVDVSHEDPEVKFNWYVDGVEVHNAKTKPREEQYNSTYRVVSVLTVLHQDWLNGKEYKCKVSNKALPAPIEKTISKAKGQPREPQVCTLPPSRDELTKNQVSLWCLVKGFYPSDIAVEWESNGQPENNYKTTPPVLDSDGSFFLYSKLTVDKSRWQQGNVFSCSVMHEALHNRYTQKSLSLSP
light: DIVMTQSPLSLPVTPGEPASISCRSSQSLVHSNRNTYLHWYQQKPGQAPRLLIYKVSNRFSGVPDRFSGSGSGTDFTLKISRVEAEDVGVYYCGYGTQVPYTFGQGTKLEIKRTVAAPSVFIFPPSDEQLKSGTASVVCLLNNFYPREAKVQWKVDNALQSGNSQESVTEQDSKDSTYSLSSTLTLSKADYEKHKVYACEVTHQGLSSPVTKSFNRGEC
notes: One-arm antibody; substitution position in Kabat numbering; also called L chain altered form, Kabat 90 Q to Y

The binders below were run against T1, CD3 epsilon homodimer protein (UniProt P07766 23-126) (assay: SPR Biacore T200, CD3 epsilon homodimer immobilised on CM4, one-arm antibody as analyte, single-cycle kinetics; reference unaltered GLS3000 antibody;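 further: CD3 epsilon homodimer attached to the CM4 chip via amine coupling, measured at 25 °C with HBS-EP+ as running buffer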).
T1 construct: also called CD3 (CD3 epsilon)
T1 sequence (P07766 23-126): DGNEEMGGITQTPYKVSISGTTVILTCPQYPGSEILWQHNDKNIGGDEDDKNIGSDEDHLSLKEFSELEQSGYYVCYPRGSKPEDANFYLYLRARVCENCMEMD
Method: An appropriate amount of CD3 epsilon homodimer protein was immobilized onto Sensor chip CM4 (GE Healthcare Japan Corp.) by the amine coupling method. Then, the antibody having an appropriate concentration was injected thereto as an analyte and allowed to interact with the CD3 epsilon homodimer protein on the sensor chip. Then, the sensor chip was regenerated by the injection of 10 mmol/L glycine-HCl (pH 1.5). The assay was conducted at 25 degrees C., and HBS-EP+(GE Healthcare Japan Corp.) was used as a running buffer. […] Each parameter was calculated using Biacore T200 Evaluation Software (GE Healthcare Japan Corp.).
Specifically, when the amount of the GLS3000-containing antibody bound was defined as X and the amount of the L chain one-amino acid altered form bound was defined as Y, a value of Z (ratio of amounts bound)=Y/X was used.

Q: With B1 as the binder, how does the “dissociation constant KD(M) ratio of L chain altered form to GLS3000” value (“dissociation constant KD(M) ratio” for short) read?
A: The value was 1.19 ratio.

Q: With B2 as the binder, how does the “dissociation constant KD(M) ratio” value read?
A: The value was 0.96 ratio.

Q: B3 was tested. Which “dissociation constant KD(M) ratio” value did it give?
A: Its value is 15.9 ratio.

Q: For B4, which “dissociation constant KD(M) ratio” value is on record?
A: The value was 36.3 ratio.
